According to publication PMC3605141, “NODULE INCEPTION Directly Targets NF-Y Subunit Genes to Regulate Essential Processes of Root Nodule Development in Lotus japonicus”:

T1: NIN(520-878)-myc (C-ter) (Lotus japonicus) (UniProt Q9S7B1)
T1 sequence: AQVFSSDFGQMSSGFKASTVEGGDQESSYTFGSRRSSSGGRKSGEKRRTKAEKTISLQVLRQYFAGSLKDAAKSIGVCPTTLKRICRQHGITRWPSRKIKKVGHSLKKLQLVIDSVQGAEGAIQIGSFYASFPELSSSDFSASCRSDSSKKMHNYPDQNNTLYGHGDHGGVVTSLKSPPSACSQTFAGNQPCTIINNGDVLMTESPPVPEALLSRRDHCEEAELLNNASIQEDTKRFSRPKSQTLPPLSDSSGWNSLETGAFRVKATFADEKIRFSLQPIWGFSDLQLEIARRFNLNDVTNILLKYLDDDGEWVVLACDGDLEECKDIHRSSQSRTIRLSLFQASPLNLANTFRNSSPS

T2: NIN-myc (Full) (Lotus japonicus) (UniProt Q9S7B1)
T2 sequence: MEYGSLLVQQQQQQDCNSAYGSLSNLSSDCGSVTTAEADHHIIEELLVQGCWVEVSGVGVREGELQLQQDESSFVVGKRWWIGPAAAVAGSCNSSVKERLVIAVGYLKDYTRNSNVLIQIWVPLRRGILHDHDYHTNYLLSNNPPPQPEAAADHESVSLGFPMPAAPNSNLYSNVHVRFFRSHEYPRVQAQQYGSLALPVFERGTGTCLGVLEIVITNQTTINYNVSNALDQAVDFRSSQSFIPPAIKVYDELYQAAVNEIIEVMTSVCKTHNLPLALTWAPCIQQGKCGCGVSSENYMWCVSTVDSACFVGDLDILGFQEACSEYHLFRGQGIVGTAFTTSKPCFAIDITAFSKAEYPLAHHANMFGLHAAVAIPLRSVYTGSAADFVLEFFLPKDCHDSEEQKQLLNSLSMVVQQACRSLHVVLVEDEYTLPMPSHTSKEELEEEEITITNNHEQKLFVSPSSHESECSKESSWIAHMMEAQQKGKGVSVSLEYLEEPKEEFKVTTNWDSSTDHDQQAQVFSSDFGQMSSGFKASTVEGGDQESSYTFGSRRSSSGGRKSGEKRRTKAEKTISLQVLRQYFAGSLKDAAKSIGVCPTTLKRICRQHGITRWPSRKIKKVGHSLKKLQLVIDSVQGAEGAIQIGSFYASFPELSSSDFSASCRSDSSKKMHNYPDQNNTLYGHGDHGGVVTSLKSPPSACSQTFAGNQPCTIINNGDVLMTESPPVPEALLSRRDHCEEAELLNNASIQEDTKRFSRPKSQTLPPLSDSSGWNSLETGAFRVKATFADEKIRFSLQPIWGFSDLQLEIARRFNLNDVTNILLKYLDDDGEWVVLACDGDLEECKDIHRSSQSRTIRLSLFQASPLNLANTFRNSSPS

B1: NBS-yB1a m14 (dsDNA)
DNA 1: TACTTGTATCTTTAGAGCTTTCCAAGGGTATTTTC
DNA 2: GAAAATACCCTTGGAAAGCTCTAAAGATACAAGTA
B2: NBS-yB1a m8 (dsDNA)
DNA 1: TACTTGTATCAAAAGAGCTTTCCAAGGGATATTTC
DNA 2: GAAATATCCCTTGGAAAGCTCTTTTGATACAAGTA
B3: NBS-yB1a m13 (dsDNA)
DNA 1: TACTTGTATCTTTAGAGCTTTCCAACCCATATTTC
DNA 2: GAAATATGGGTTGGAAAGCTCTAAAGATACAAGTA
B4: NBS-yB1a m12 (dsDNA)
DNA 1: TACTTGTATCTTTAGAGCTTTCGTTGGGATATTTC
DNA 2: GAAATATCCCAACGAAAGCTCTAAAGATACAAGTA
B5: probe 14 m3 (dsDNA)
DNA 1: AAACCCCATCAATTTACTTGTTAGAAAAGAGCTTTCCAAGGGATATTTC
DNA 2: GAAATATCCCTTGGAAAGCTCTTTTCTAACAAGTAAATTGATGGGGTTT
B6: probe 14 m5 (dsDNA)
DNA 1: AAACCCCATCAATTTACTTGTATCTTTAGAGCTTTCCAACCCTATTTTC
DNA 2: GAAAATAGGGTTGGAAAGCTCTAAAGATACAAGTAAATTGATGGGGTTT

Key:
[1] = biological target: T1, NIN(520-878)-myc (C-ter) (Lotus japonicus); assay: EMSA; conditions: 20 mM Hepes-KOH pH 7.9, 50 mM KCl, 1 mM MgCl2, 1 mM DTT, 4% glycerol, 0.1% Triton X-100, 2 ug BSA, 400 ng dIdC, 20 ul, 30 min at room temperature; 10-30 fmol …
[2] = biological target: T2, NIN-myc (Full) (Lotus japonicus); assay: EMSA; conditions: 20 mM Hepes-KOH pH 7.9, 50 mM KCl, 1 mM MgCl2, 1 mM DTT, 4% glycerol, 0.1% Triton X-100, 2 ug BSA, 400 ng dIdC, 20 ul, 30 min at room temperature; 10-30 fmol …
NIN(520-878)-myc (C-ter) = NIN(520-878)-myc (C-ter) (Lotus japonicus, UniProt Q9S7B1 520-878); assay: EMSA; 20 mM Hepes-KOH pH 7.9, 50 mM KCl, 1 mM MgCl2, 1 mM DTT, 4% glycerol, 0.1% Triton X-100, 2 ug BSA, 400 ng dIdC, 20 ul, 30 min at room temperature; 10-30 fmol 32P probe; conditions: protein: ivt, tags: myc

Row | Molecule | binding [1] | binding result (NIN(520-878)-myc (C-ter); label: 32P) | other results
1 | TACAATTCTTTACTTTCAATACAAAAAACCCCATCAATTTACTTGTATCTTTAG (double strand) [LjNF-YB1 probe 15] | no binding |  | 
2 | GTTAATGGATGCTGAGAAGGCCTTTGAGGCCGCTCAAAAGAGTGAAGATGAATATGAAATATCCCTTGGAAAGCTCTAAAG (double strand) [LjNF-YB1 probe 9] | binds |  | binding [2]: binds
3 | TCACTTTGGTGGATGTGGATATACAATTCTTTACTTTCAATACAAAAAACC (double strand) [LjNF-YB1 probe 16] | no binding |  | 
4 | TCACTTTGGTGGATGTGGATATACAATTCTTTACTTTCAATACAAAAAACCCCATCAATTTACTTGTATCTTTAGAGCTTTCCAAGGGATATTTC (double strand) [LjNF-YB1 probe 10] | binds |  | binding [2]: binds
5 | GAGAAAATGCTAGTTTTTAAAAAGAGAACCTTTATTTTTTTAAATATTGTATTTACGAAGAAAACTGAAAAAGAACAGATGATTTCAGTTAGATTGCTTGGCCCCCTTCTTATCTGGACAGGCATTTTCCTG (double strand) [LjNF-YA1 probe 9] | binds |  | binding [2]: binds
6 | AAAGAGTGAAGATGAATATGAAATATCCCTTGGAAAGCTCTAAAG (double strand) [LjNF-YB1 probe 13] | no binding |  | 
7 | GGCCTTTGAGGCCGCTCAAAAGAGTGAAGATGAATATGAAAT (double strand) [LjNF-YB1 probe 12] | no binding |  | 
8 | TCTTTTGAGCGGCCTCAAAGGCCTTCTCAGCATCCATTAAC (double strand) [LjNF-YB1 probe 11] | no binding |  | 
9 | B1 |  | no binding | 
10 | B2 |  | no binding | 
11 | B3 |  | no binding | 
12 | B4 |  |  | binding result (NIN(520-878)-myc (C-ter); label: 32P as probe): no binding
13 | B5 |  | no binding | 
14 | B6 |  | no binding | 
